Patent publication US20200262914A1 (MIT, published 2020)

What was measured:
[1] = molecular target: T1, human Bcl-xL (residues 1-209) (human, UniProt Q07817 1-209); assay: competition FP vs fluoresceinated Bim BH3, solution
T1 construct: range 1-209
From the text: (§1) We used the cell-surface experiments to select six peptides, for which we determined solution Ki values using a competition fluorescence polarization (FP) assay (FIG. 3, panel d).

[2] = molecular target: T1, human Bcl-xL (residues 1-209); assay: solution binding assays (competition FP)
[3] = molecular target: T2, human Mcl-1 (residues 172-327) (human, UniProt Q07820 172-327); assay: competition FP vs fluoresceinated Bim BH3, solution
T2 construct: range 172-327
T2 sequence (Q07820 172-327 limits assumed): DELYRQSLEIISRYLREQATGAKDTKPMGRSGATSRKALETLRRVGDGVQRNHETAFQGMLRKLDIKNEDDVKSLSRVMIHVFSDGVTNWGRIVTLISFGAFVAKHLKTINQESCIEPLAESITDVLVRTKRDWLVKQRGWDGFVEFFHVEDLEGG
From the text: as §1

[4] = molecular target: T3, human Bfl-1 (residues 1-151) (human, UniProt Q16548 1-151); assay: as above
T3 construct: range 1-151
T3 sequence (looked up): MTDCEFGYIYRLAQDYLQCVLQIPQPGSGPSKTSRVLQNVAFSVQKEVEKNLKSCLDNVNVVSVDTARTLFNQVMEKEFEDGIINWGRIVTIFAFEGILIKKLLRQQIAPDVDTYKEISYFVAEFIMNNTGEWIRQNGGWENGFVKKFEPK
From the text: as §1

[5] = molecular target: T2, human Mcl-1 (residues 172-327); assay: competition FP, solution
From the text: as §1

[6] = molecular target: T3, human Bfl-1 (residues 1-151); assay: competition FP, solution
From the text: as §1

[7] = molecular target: T3, human Bfl-1 (residues 1-151); assay: yeast display, sparse titration, apparent KD;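 also: designs displayed on the yeast cell surface, binding of soluble target protein measured at four concentrations spanning nanomolar to micromolar, apparent KD estimated from this sparse titration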
Method: We measured binding of the designs to 1, 10, 100 or 1000 nM of Bcl-xL, Mcl-1 and Bfl-1 using yeast cell-surface display.

[8] = molecular target: T3, human Bfl-1 (residues 1-151); assay: reported affinity; yeast cell-surface measurement presumed

T1 sequence (Q07817 1-209 limits assumed): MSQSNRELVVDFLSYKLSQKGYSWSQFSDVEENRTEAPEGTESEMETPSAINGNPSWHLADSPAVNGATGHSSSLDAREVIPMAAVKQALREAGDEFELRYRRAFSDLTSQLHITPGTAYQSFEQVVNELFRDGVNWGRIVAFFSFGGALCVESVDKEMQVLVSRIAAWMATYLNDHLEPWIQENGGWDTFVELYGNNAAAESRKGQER

B1: srt.X7 (peptide)
peptide: Ac-QPLIWFGAQLRRGADEFAAQRER-NH2
notes: synthetic solution peptide; also called srt.X07
Ki [1]: 3.7 nM
fold specificity for target over off-targets [2]: > 1000 fold

B2: srt.MF06 (peptide)
peptide: Ac-RRVDEIAQILRRIGDNVTTYIER-NH2
notes: synthetic solution peptide; also called MF6
Ki [3]: 5.7 nM
Ki [4]: 19 nM
fold tighter Ki than to Bcl-xL [5]: > 100 fold
fold tighter Ki than to Bcl-xL [6]: > 100 fold

B3: srt.X1 (peptide)
peptide: Ac-QTLIWYGASLRRYADEFAKQRER-NH2
notes: synthetic solution peptide; also called srt.X01
Ki [1]: 1.32 nM
fold specificity for target over off-targets [2]: > 1000 fold

B4: srt.MF02 (peptide)
peptide: Ac-RWIDQIAQFLRRIGDHIEKYIER-NH2
notes: synthetic solution peptide; also called MF2
Ki [3]: 9 nM
Ki [4]: 6.6 nM
Ki [1]: 1000 nM
fold tighter Ki than to Bcl-xL [5]: > 100 fold
fold tighter Ki than to Bcl-xL [6]: > 100 fold

B5: srt.MX05 (peptide)
peptide: Ac-QWLRDVVAELARIADEFHAQYER-NH2
notes: synthetic solution peptide
Ki [3]: 100 nM
Ki [1]: 20 nM

B6: F4 (peptide)
peptide: GQRVVHIAAGLRRTGDQLEAYG
Kd [7]: < 100 nM
Kd [8]: 14 nM

B7: F10 (peptide)
peptide: GRRVVQIAAGLRRAGDQLEKYG
Kd [7]: < 100 nM
Kd [8]: 3.2 nM

B8: srt.MX01 (peptide)
peptide: Ac-QWLRWVIAELIRIADEFHAQYER-NH2
notes: synthetic solution peptide
Ki [3]: 11 nM
Ki [1]: 21 nM
